Measurements from US20140134169A1, “Methods of Treating Ovarian Cancer with Dll4 Antagonists” (Regeneron Pharmaceuticals, Inc., priority 2012, published 2014).

What was measured:
[1] = tested on: human VM-Cub1 tumor cells (bladder carcinoma cells); experiment: Growth of human VM-Cub1 tumors implanted in humanized Dll4 SCID mice; format: in vivo; settings: for TGI(%): day 32; for TGD: to 600 mm3
Experimental: The humanized Dll4 SCID mouse was made by replacing the entire extracellular domain of the mouse Dll4 gene with the corresponding extracellular region of the human Dll4 gene (7 kb) in embryonic stem (ES) cells. Homozygous hDll4 mice were generated and bred into SCID background.
A total of 45 mice were divided into nine groups (n=5 per cohort). The first group was treated subcutaneously (sc) with hFc at 2 mg/kg; the second and third groups were treated sc with REGN421 at 0.5 and 2 mg/kg, respectively; the fourth and fifth groups were treated intraperitoneally (ip) with cisplatin at 0.5 and 2 mg/kg, respectively; the sixth group was treated sc with REGN421 at 0.5 mg/kg and ip with cisplatin at 0.5 mg/kg; the seventh group was treated sc with REGN421 at 0.5 mg/kg and ip with cisplatin at 2 mg/kg; the eighth group was treated sc with REGN421 at 2 mg/kg and ip with cisplatin at 0.5 mg/kg; and the ninth group was treated sc with REGN421 at 2 mg/kg and ip with cisplatin at 2 mg/kg. REGN421 was administered every 3-4 days starting on day 14 and mice received three doses total. Cisplatin was administered every 24 hours starting on day 14; mice received four doses total.
To assess the effects of REGN421 and cisplatin as single agents or in combination treatments, the changes in tumor size were recorded. Tumor growth was measured three days before the initial REGN421 treatment, on the day of each REGN421 treatment (days 14, 17 and 21) and thereafter every 3-4 days until tumors reached ˜600 mm3 in size. In vivo tumor size was calculated using the formula (length×width2)/2 (FIG. 1 and Table 1).
Tumor Growth Inhibition, TGI, was determined by calculating the difference in tumor size for treated (T) versus vehicle control (C) tumor at the day the control cohort was euthanized (i.e., at day 32); TGI=[1−(Tfinal−Tinitial)/(Cfinal−Cinitial)]×100.
Tumor growth delay, TGD, was assessed as the difference in days between treated (T) versus control (C) tumors when each cohort reached a specified tumor size. The predetermined tumor size for this experiment was 600 mm^3.

[2] = tested on: SKOV-3 cells; experiment: SKOV-3 ovarian xenograft (subcutaneous) tumor growth inhibition; format: in vivo, human; settings: Humanized Dll4 SCID mice; REGN421 2.5 mg/kg once weekly; 2.5 mg/kg
Experimental: Ovarian tumor xenograft cells were implanted into humanized Dll4 SCID mice or vendor SCID mice (i.e., SCID mice expressing native murine Dll4). After implantation, mice were treated with REGN421 (anti-human Dll4 antibody, binds to human Dll4), mDll4Ab1 (anti-murine Dll4 antibody, binds to murine Dll4), or a human Fc domain control protein. In one study, mice were treated with VEGF-Trap, mDll4Ab1 or VEGF-Trap plus mDll4Ab1. TOV-112D cells (5×10^6) were implanted subcutaneously into the right flank of humanized Dll4 (n=4) or vendor SCID mice (n=7). Treatment with REGN421 (2.5 mg/kg, 1×/week) or mDll4Ab1 (5 mg/kg, 1×/week) vs. hFc control was initiated one week after tumor cell implantation. Animals were treated for 2 to 3 weeks. A2780 cells (2×10^6) were implanted intraperitoneally into humanized Dll4 or vendor SCID mice (n=4-5). Treatment with REGN421 (2.5 mg/kg, 1×/week) or mDll4Ab1 (5 mg/kg, 1×/week) vs. hFc control was initiated one week after tumor cell implantation. For the A2780 combination study, simultaneous treatment with mDll4Ab1 (5 mg/kg, 1×/week) and VEGF-Trap (10 mg/kg, 2×/week) was initiated one week after tumor cell implantation. A VEGF-Trap single treatment arm was included in this study. Animals bearing A2780 tumors were treated for 4-5 weeks. […] Tumor growth inhibition (TGI) was measured as detailed above.

[3] = target: human Dll4 (human, UniProt Q9NR61 27-524, limits assumed); experiment: cell-based or functional assay
Sequence of human Dll4 (Q9NR61 27-524 limits assumed): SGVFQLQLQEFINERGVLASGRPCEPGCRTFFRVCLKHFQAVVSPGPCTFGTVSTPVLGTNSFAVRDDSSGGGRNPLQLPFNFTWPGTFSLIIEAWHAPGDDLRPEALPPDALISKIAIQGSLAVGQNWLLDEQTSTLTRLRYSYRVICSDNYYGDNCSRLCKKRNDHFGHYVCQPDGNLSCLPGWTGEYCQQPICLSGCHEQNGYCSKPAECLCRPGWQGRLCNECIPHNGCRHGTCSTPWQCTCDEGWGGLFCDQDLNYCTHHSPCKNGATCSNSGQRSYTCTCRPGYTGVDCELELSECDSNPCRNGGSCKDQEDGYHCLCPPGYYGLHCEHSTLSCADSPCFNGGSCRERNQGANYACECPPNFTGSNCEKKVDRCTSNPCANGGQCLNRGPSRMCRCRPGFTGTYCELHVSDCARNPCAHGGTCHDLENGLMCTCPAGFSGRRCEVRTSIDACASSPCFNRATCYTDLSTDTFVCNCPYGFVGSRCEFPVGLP

[4] = tested on: TOV-112D cells; experiment: TOV-112D ovarian xenograft (subcutaneous) tumor growth inhibition; format: in vivo, human
Experimental: (§1) Ovarian tumor xenograft cells were implanted into humanized Dll4 SCID mice or vendor SCID mice (i.e., SCID mice expressing native murine Dll4). After implantation, mice were treated with REGN421 (anti-human Dll4 antibody, binds to human Dll4), mDll4Ab1 (anti-murine Dll4 antibody, binds to murine Dll4), or a human Fc domain control protein. In one study, mice were treated with VEGF-Trap, mDll4Ab1 or VEGF-Trap plus mDll4Ab1. TOV-112D cells (5×10^6) were implanted subcutaneously into the right flank of humanized Dll4 (n=4) or vendor SCID mice (n=7). Treatment with REGN421 (2.5 mg/kg, 1×/week) or mDll4Ab1 (5 mg/kg, 1×/week) vs. hFc control was initiated one week after tumor cell implantation. Animals were treated for 2 to 3 weeks. A2780 cells (2×10^6) were implanted intraperitoneally into humanized Dll4 or vendor SCID mice (n=4-5). Treatment with REGN421 (2.5 mg/kg, 1×/week) or mDll4Ab1 (5 mg/kg, 1×/week) vs. hFc control was initiated one week after tumor cell implantation. For the A2780 combination study, simultaneous treatment with mDll4Ab1 (5 mg/kg, 1×/week) and VEGF-Trap (10 mg/kg, 2×/week) was initiated one week after tumor cell implantation. A VEGF-Trap single treatment arm was included in this study. Animals bearing A2780 tumors were treated for 4-5 weeks. SKOV-3 cells (5×10^6) in matrigel were implanted subcutaneously and tumor-bearing animals (n=10) were dosed with REGN421 (2.5 mg/kg) and mDll4Ab1 (5 mg/kg) once weekly. OVCAR-3 cells (1×10^7) were implanted subcutaneously into the right flank of vendor SCID mice (n=7). Treatment with mDll4Ab1 (5 mg/kg 1×/week) vs. hFc control was initiated 66 days after tumor cell implantation. Animals were treated for a total of 5 weeks. Tumor growth inhibition (TGI) was measured as detailed above.

[5] = tested on: A2780 cells; experiment: A2780 ovarian xenograft (intraperitoneal) tumor growth inhibition; format: in vivo, human; settings: for % TGI: REGN421 2.5 mg/kg 1x/week
Experimental: as §1

B1: REGN421 (antibody, V domains shown)
VH: QVQLVESGGGVVQPGRSLRLSCAASGFTFSSYGMHWVRQAPGKGLEWVSFLWYDGTNKNYVESVKGRFTISRDNSKNMLYLEMNSLRAEDTAVYYCARDHDFRSGYEGWFDPWGQGTLVTVSS
VL: EIVLTQSPATLSLSPGERATLSCRASQSVSSYLAWYQQKPGQAPRLLIYDASNRATGIPARFSGSGSGTDFTLTISSLEPEDFAVYYCQHRSNWPPTFGGGTKVEIK
[1]; REGN421 0.5 mg/kg/dose sc x3
  Euthanized: 32 days
  TGI(%): −13.7%
  TGD: 0 days
[1]; REGN421 2 mg/kg/dose sc x3
  Euthanized: 44 days
  TGI(%): 83.1%
  TGD: 12 days
[1]; REGN421 alone, dose not stated
  reduction in tumor growth: 54%
[2]
  % TGI: 61%
[3]
  Hey-1 transcript Post-treatment vs. Pre-treatment ratio (patient 1, 0.25 mg/kg): 0.52 ratio
  Hey-1 transcript Post-treatment vs. Pre-treatment ratio (patient 2, 0.25 mg/kg): 0.85 ratio
  Hey-1 transcript Post-treatment vs. Pre-treatment ratio (patient 3, 0.25 mg/kg): 0.77 ratio
  Hey-1 transcript Post-treatment vs. Pre-treatment ratio (patient 4, 0.25 mg/kg): 0.51 ratio
  Hey-1 transcript Post-treatment vs. Pre-treatment ratio (patient 5, 0.25 mg/kg): 0.61 ratio
  Hey-1 transcript Post-treatment vs. Pre-treatment ratio (patient 6, 0.25 mg/kg): 0.55 ratio
  Hey-1 transcript Post-treatment vs. Pre-treatment ratio (patient 7, 0.25 mg/kg): 0.75 ratio
  Hey-1 transcript Post-treatment vs. Pre-treatment ratio (patient 8, 0.5 mg/kg): 0.68 ratio
  Hey-1 transcript Post-treatment vs. Pre-treatment ratio (patient 9, 0.5 mg/kg): 0.82 ratio
[4]; Humanized Dll4 SCID mice, REGN421 2.5 mg/kg 1x/week
  % TGI: 86%
[4]; SCID mice (native murine Dll4), REGN421 2.5 mg/kg or mDll4Ab1 5 mg/kg 1x/week
  % TGI: 0%
[4]; vendor SCID mice
  anti-tumor activity (in words): did not exhibit any appreciable anti-tumor activity
[5]; Humanized Dll4 SCID mice, 2.5 mg/kg
  % TGI: 83%
[5]; SCID mice (native murine Dll4), mDll4Ab1 5 mg/kg 1x/week, VEGF-Trap 10 mg/kg 2x/week
  % TGI: −37%
[5]; vendor SCID mice
  anti-tumor activity (in words): did not exhibit any appreciable anti-tumor activity
